Test results published in patent publication US20180021429A1, “ANTICANCER AGENTS OR ANTIMETASTATIC AGENTS USING FSTL1 AND COMBINATION DRUG THEREOF” (PHARMA FOODS INTERNATIONAL CO., LTD., priority 2015, published 2018).
Numbering of substitutions follows the chain as printed. “Also recorded” adds a separate entry of the source.

Assays:
[1] = system: induction of mesenchymal stem cells (MSCs) by FSTL1; assay: Inhibitory activity against MSC induction, ALCAM-/PDGFRA-positive cells (Example 4); format: cell-based; details: mouse bone marrow cells; FSTL1 50 ng/mL; antibody 10 μg/mL; 11 days; vs control antibody
Method: It is known that when bone marrow cells are stimulated with FSTL1, mesenchymal stem cells (MSCs) having pluripotency or self-proliferative capacity grow (Cancer Research 73: 6185, 2013). Thus, 2×10^7 cells/well of bone marrow cells collected from the thigh bone of a C57BL/6 mouse were suspended in 3 mL/well of RPMI1640 (GIBCO/Thermo Fisher Scientific Inc., Cat. No. C11875500BT) medium containing 2% fetal bovine serum, supplemented with 50 ng/mL (final concentration) of FSTL1 (R&D Systems, Inc. Cat#1694-FN-050) and 10 μg/mL of the anti-FSTL1 antibody (#5-2, #5-3, #5-8, #5-10, #5-43, #6-55, or #7-34) or its isotype mouse IgG (anti-DNP antibody) as a control antibody “Control”, and cultured under stimulation (6-well plate). 11 days thereafter, the number of cells was counted while the cells were stained with a PE-labeled anti-ALCAM antibody
(eBioscience, Cat. No. 12-1661-82) and a PE-labeled anti-PDGFRA antibody (eBioscience, Cat#12-1401-81) in order to examine the expression of MSC markers, and the contents of ALCAM-positive cells and PDGFR-positive cells were analyzed by flow cytometry using FACScan (Becton, Dickinson and Company, Code. BECTON-DICKINSON-FACSCAN) to calculate the number of each positive cell per culture.
It is known that when bone marrow cells are stimulated with FSTL1, mesenchymal stem cells (MSCs) having pluripotency or self-proliferative capacity grow (Cancer Research 73: 6185, 2013). […] 11 days thereafter, the number of cells was counted while the cells were stained with a PE-labeled anti-ALCAM antibody (eBioscience, Cat. No. 12-1661-82) and a PE-labeled anti-PDGFRA antibody (eBioscience, Cat#12-1401-81) in order to examine the expression of MSC markers, and the contents of ALCAM-positive cells and PDGFR-positive cells were analyzed by flow cytometry using FACScan (Becton, Dickinson and Company, Code. BECTON-DICKINSON-FACSCAN) to calculate the number of each positive cell per culture.

[2] = system: induction of mesenchymal stem cells (MSCs) by FSTL1; assay: Inhibitory activity against induction of MSC by FSTL1, CD45-negative cells (Examples 6, 8, 12); format: cell-based, mouse; details: antibody 10 μg/mL
Method: (§1) Mouse bone marrow cells prepared in the same way as in Example 4 were supplemented with 50 ng/mL (final concentration) of FSTL1 and 10 μg/mL of the anti-FSTL1 antibody (#5-2, #5-3, #5-8, #5-10, 45-43, #6-55, or #7-34) or a control antibody anti-DNP antibody and cultured under stimulation. 11 days thereafter, the number of cells was counted while the cells were stained with a PE-Cy5-labeled anti-CD45 antibody (BD Pharmingen/Becton, Dickinson and Company, Cat. No. 555484), and the content of CD45-negative cells reported to generally contain MSCs at a high rate was analyzed by flow cytometry using FACScan to calculate the percentage and number of MSCs per culture (FIG. 5A).
Mouse bone marrow cells prepared in the same way as in Example 4 were supplemented with 20 ng/mL (final concentration) of FSTL1 and 10 μg/mL of the anti-FSTL1 antibody (#5-2, #5-3, #5-8, #5-10, #5-43, #6-55, #8-1, #8-4, #8-7, and #8-8) or a control antibody anti-DNP antibody and cultured under stimulation. 8 days thereafter, the number of cells was counted while the cells were stained with a PE-Cy5-labeled anti-CD45 antibody, and the content of CD45-negative cells was analyzed by flow cytometry using FACScan to calculate the percentage and number of MSCs per culture (FIG. 6A).
Mouse bone marrow cells prepared in the same way as in Example 4 were supplemented with 20 ng/mL (final concentration) of FSTL1 and 10 μg/mL of the anti-FSTL1 antibody (#5-2, #5-8, #6-55, #7-34, #8-1, #8-4, #8-7, or #8-8) or a control antibody anti-DNP antibody and cultured under stimulation. 8 days thereafter, the number of cells was counted while the cells were stained with a PE-Cy5-labeled anti-CD45 antibody, and the content of CD45-negative cells was analyzed by flow cytometry using FACScan to calculate the percentage and number of MSCs per culture (FIG. 7).
as §1, with “35A).” for “5A).”
Mouse bone marrow cells prepared in the same way as in Example 4 were supplemented with 20 ng/mL (final concentration) of FSTL1 and 10 μg/mL of the anti-FSTL1 antibody (#5-2, #5-3, #5-8, #5-10, #5-43, #6-55, #8-1, #8-4, #8-7, and #8-8) or a control antibody anti-DNP antibody and cultured under stimulation. 8 days thereafter, the number of cells was counted while the cells were stained with a PE-Cy5-labeled anti-CD45 antibody, and the content of CD45-negative cells was analyzed by flow cytometry using FACScan to calculate the percentage and number of MSCs per culture (FIG. 36A).
Mouse bone marrow cells prepared in the same way as in Example 4 were supplemented with 20 ng/mL (final concentration) of FSTL1 and 10 μg/mL of the anti-FSTL1 antibody (#5-2, #5-8, #6-55, #7-34, #8-1, #8-4, #8-7, or #8-8) or a control antibody anti-DNP antibody and cultured under stimulation. 8 days thereafter, the number of cells was counted while the cells were stained with a PE-Cy5-labeled anti-CD45 antibody, and the content of CD45-negative cells was analyzed by flow cytometry using FACScan to calculate the percentage and number of MSCs per culture (FIG. 37).

[3] = Example 6, FIG. 5A/35A, FSTL1 50 ng/mL, 11 days
[4] = Example 8, FIG. 6A/36A, FSTL1 20 ng/mL, 8 days
[5] = Example 12, FIG. 7/37, FSTL1 20 ng/mL, 8 days

B1: #5-43: chicken-mouse chimeric anti-FSTL1 antibody clone; variable regions SEQ ID NO: 779 (light), 781 (heavy) (antibody, V domains shown)
VH: AVTLDESGGGLQTPGGGLSLVCKGSGFTFSSFNMFWVRQAPGKGLEWVAGIGKDGGTGYGAAVDGRATISKDSGQSTLRLQLNNLRAEDTGTYYCAKAAGGCSYDWCGAYTGDIDTWGHGTEVIVSS
VL: ASTQPSSVSANPGEAVKITCSGGSGSYYGWYQQKSPGSAPVTVIYNNNQRPSDIPSRFSGSKSGSTATLTITGVQAEDEAVYFCGGYDSSTGHGGIFGAGTTLTVL
modifications: mouse constant regions
inhibitory activity against the expansion of ALCAM-positive cells and PDGFRA-positive cells by FSTL1 [1]: slightly strong tendency of inhibitory activity | inhibitory activity against the expansion of CD45-negative cells by FSTL1 [2, 3]: higher inhibitory activity and substantially completely inhibited the action of FSTL1 | inhibitory activity against the expansion of CD45-negative cells by FSTL1 [2, 4]: exhibited inhibitory activity against the expansion of CD45-negative cells by FSTL1; also recorded: Inhibitory activity was confirmed

B2: #8-7: chicken-mouse chimeric anti-FSTL1 antibody clone; variable regions SEQ ID NO: 799 (light), 801 (heavy) (antibody, V domains shown)
VH: B1 VH with G56V, T57P, G58K, S73N, Y94F, A109I, T111A
VL: B1 VL
modifications: mouse constant regions
inhibitory activity against the expansion of CD45-negative cells by FSTL1 [2, 5]: higher inhibitory activity was confirmed in the order of #7-34, #5-2, #6-55, and #8-7; also recorded: stronger inhibitory activity was confirmed in the order of clone #7-34, #5-2, 46-55, and #8-7

B3: #8-4: chicken-mouse chimeric anti-FSTL1 antibody clone; variable regions SEQ ID NO: 795 (light), 797 (heavy) (antibody, V domains shown)
VH: B1 VH with F29L, I51V, G58A, K71R, L78V, Y94F, D105S, T111V, I114L, T116A
VL: ASSQPSSVSANPGETVKITCSGGSGYYYGWYQQKSPGSAPVTVIYNNDNKPSDIPSRFSGSKSGSTGTLTITGVQVEDEAVYFCGGYDNSGTGIFGAGTTLTVL
modifications: mouse constant regions
inhibitory activity against the expansion of CD45-negative cells by FSTL1 [2, 4]: exhibited inhibitory activity against the expansion of CD45-negative cells by FSTL1

B4: #8-1: chicken-mouse chimeric anti-FSTL1 antibody clone; variable regions SEQ ID NO: 791 (light), 793 (heavy) (antibody, V domains shown)
VH: B1 VH with G17A, G56V, T57P, G58K, S73N, L78M, Y94F, A109I, T111A
VL: B1 VL with T91S
modifications: mouse constant regions
inhibitory activity against the expansion of CD45-negative cells by FSTL1 [2, 4]: exhibited inhibitory activity against the expansion of CD45-negative cells by FSTL1; also recorded: Inhibitory activity was confirmed

B5: #5-8: chicken-mouse chimeric anti-FSTL1 antibody clone; variable regions SEQ ID NO: 771 (light), 773 (heavy) (antibody, V domains shown)
VH: B1 VH with G56V, T57P, G58K, A61T, S73N, L78M, Y94F, A109I
VL: B1 VL
modifications: mouse constant regions
inhibitory activity against the expansion of CD45-negative cells by FSTL1 [2, 3]: higher inhibitory activity and substantially completely inhibited the action of FSTL1 | inhibitory activity against the expansion of CD45-negative cells by FSTL1 [2, 4]: exhibited inhibitory activity against the expansion of CD45-negative cells by FSTL1; also recorded: Inhibitory activity was confirmed

B6: #5-2: chicken-mouse chimeric anti-FSTL1 antibody clone; variable regions SEQ ID NO: 763 (light), 765 (heavy) (antibody, V domains shown)
VH: B1 VH with I51V, S73N, D105G, A109S, T111V, T116A
VL: B1 VL
modifications: mouse constant regions
inhibitory activity against the expansion of CD45-negative cells by FSTL1 [2, 5]: higher inhibitory activity was confirmed in the order of #7-34, #5-2, #6-55, and #8-7; also recorded: stronger inhibitory activity was confirmed in the order of clone #7-34, #5-2, 46-55, and #8-7

B7: #5-3: chicken-mouse chimeric anti-FSTL1 antibody clone; variable regions SEQ ID NO: 767 (light), 769 (heavy) (antibody, V domains shown)
VH: B1 VH with G17A, T28S, G56V, T57P, G58K, S73N, L78M, Y94F, A109I, T111A
VL: B3 VL with S3T, A39V, D48N, K50R, Q75R, V76A, F83Y
modifications: mouse constant regions
inhibitory activity against the expansion of CD45-negative cells by FSTL1 [2, 3]: higher inhibitory activity and substantially completely inhibited the action of FSTL1
